According to the Immune Epitope Database (IEDB):

Assays:
[1] = biological target: HLA-B*07:02; experiment: IEDB peptide-MHC binding, purified MHC/competitive/fluorescence; filed as Kd, often an IC50 or EC50 that approximates it; ≥ and ≤ were set here for values at or beyond the usual limits of such assays
[2] = biological target: HLA-A*03:01; experiment: IEDB peptide-MHC binding, purified MHC/competitive/fluorescence; ≥ and ≤ were set here for values at or beyond the usual limits of such assays
[3] = biological target: HLA-A*11:01; experiment: as above; settings: source organism: Variola virus
[4] = biological target: HLA-B*08:01; experiment: as above
[5] = biological target: HLA-B*40:01; experiment: IEDB peptide-MHC binding, purified MHC/competitive/fluorescence; filed as Kd, often an IC50 or EC50 that approximates it; ≥ and ≤ were set here for values at or beyond the usual limits of such assays
[6] = biological target: HLA-A*24:02; experiment: IEDB peptide-MHC binding, purified MHC/competitive/fluorescence; ≥ and ≤ were set here for values at or beyond the usual limits of such assays; settings: source organism: Zaire ebolavirus
[7] = biological target: HLA-A*02:19; experiment: IEDB peptide-MHC binding, purified MHC/direct/fluorescence; filed as Kd, often an IC50 or EC50 that approximates it; ≥ and ≤ were set here for values at or beyond the usual limits of such assays; settings: source organism: Orthohantavirus sangassouense
[8] = biological target: HLA-A*02:01; experiment: as above; settings: source organism: Orthohantavirus hantanense
[9] = biological target: HLA-C*12:03; experiment: as above
[10] = biological target: HLA-A*02:12; experiment: as above; settings: source organism: Orthohantavirus sangassouense
[11] = biological target: HLA-A*69:01; experiment: as above; settings: source organism: Orthohantavirus hantanense
[12] = biological target: HLA-A*02:11; experiment: as above; settings: source organism: Orthohantavirus sangassouense
[13] = biological target: HLA-A*02:01; experiment: IEDB peptide-MHC binding, purified MHC/competitive/fluorescence; ≥ and ≤ were set here for values at or beyond the usual limits of such assays
[14] = biological target: HLA-B*15:01; experiment: as above; settings: source organism: Vaccinia virus WR
[15] = biological target: HLA-B*39:01; experiment: IEDB peptide-MHC binding, purified MHC/competitive/fluorescence; filed as Kd, often an IC50 or EC50 that approximates it; ≥ and ≤ were set here for values at or beyond the usual limits of such assays; settings: source organism: Escherichia coli
[16] = biological target: HLA-B*08:01; experiment: as above; settings: source organism: Escherichia coli
[17] = biological target: HLA-A*01:01; experiment: IEDB peptide-MHC binding, purified MHC/competitive/radioactivity; filed as Kd, often an IC50 or EC50 that approximates it; ≥ and ≤ were set here for values at or beyond the usual limits of such assays; settings: source organism: Dengue virus 4 Philippines/H241/1956
[18] = biological target: HLA-C*15:02; experiment: IEDB peptide-MHC binding, purified MHC/direct/fluorescence; filed as Kd, often an IC50 or EC50 that approximates it; ≥ and ≤ were set here for values at or beyond the usual limits of such assays
[19] = biological target: HLA-A*01:01; experiment: IEDB peptide-MHC binding, purified MHC/competitive/fluorescence; filed as Kd, often an IC50 or EC50 that approximates it; ≥ and ≤ were set here for values at or beyond the usual limits of such assays
[20] = biological target: HLA-B*57:01; experiment: IEDB peptide-MHC binding, purified MHC/direct/fluorescence; filed as Kd, often an IC50 or EC50 that approximates it; ≥ and ≤ were set here for values at or beyond the usual limits of such assays; settings: source organism: Giardia lamblia ATCC 50803
[21] = biological target: HLA-B*58:01; experiment: as above; settings: source organism: Giardia lamblia ATCC 50803
[22] = biological target: HLA-A*29:02; experiment: IEDB peptide-MHC binding, purified MHC/competitive/fluorescence; filed as Kd, often an IC50 or EC50 that approximates it; ≥ and ≤ were set here for values at or beyond the usual limits of such assays; settings: source organism: Homo sapiens
[23] = biological target: HLA-B*45:06; experiment: as above; settings: source organism: Homo sapiens
[24] = biological target: HLA-B*15:42; experiment: as above; settings: source organism: Homo sapiens
[25] = biological target: HLA-B*83:01; experiment: as above; settings: source organism: Homo sapiens
[26] = biological target: HLA-B*27:03; experiment: as above; settings: source organism: Giardia lamblia ATCC 50803
[27] = biological target: HLA-B*57:01; experiment: as above; settings: source organism: Giardia lamblia ATCC 50803
[28] = biological target: HLA-A*03:01; experiment: as above; settings: source organism: Giardia lamblia ATCC 50803
[29] = biological target: HLA-B*18:01; experiment: as above; settings: source organism: Giardia lamblia ATCC 50803
[30] = biological target: HLA-B*15:17; experiment: as above; settings: source organism: Giardia lamblia ATCC 50803
[31] = biological target: HLA-B*51:01; experiment: as above
[32] = biological target: HLA-B*46:01; experiment: as above; settings: source organism: Giardia lamblia ATCC 50803
[33] = biological target: HLA-B*15:01; experiment: as above
[34] = biological target: HLA-A*26:01; experiment: as above; settings: source organism: Giardia lamblia ATCC 50803
[35] = biological target: HLA-A*31:01; experiment: as above; settings: source organism: Giardia lamblia ATCC 50803
[36] = biological target: HLA-A*02:06; experiment: IEDB peptide-MHC binding, purified MHC/competitive/radioactivity; filed as Kd, often an IC50 or EC50 that approximates it; ≥ and ≤ were set here for values at or beyond the usual limits of such assays; settings: source organism: Vaccinia virus WR
[37] = biological target: HLA-A*02:01; experiment: as above; settings: source organism: Vaccinia virus WR
[38] = biological target: HLA-A*02:02; experiment: as above; settings: source organism: Vaccinia virus WR
[39] = biological target: HLA-A*02:03; experiment: as above; settings: source organism: Vaccinia virus WR
[40] = biological target: HLA-C*06:02; experiment: IEDB peptide-MHC binding, purified MHC/direct/fluorescence; filed as Kd, often an IC50 or EC50 that approximates it; ≥ and ≤ were set here for values at or beyond the usual limits of such assays
[41] = biological target: HLA-C*05:01; experiment: as above; settings: source organism: human gammaherpesvirus 4
[42] = source organism: Zaire ebolavirus
[43] = source organism: Sudan ebolavirus
[44] = source organism: Vaccinia virus WR
[45] = source organism: Giardia lamblia ATCC 50803
[46] = source organism: Shigella boydii CDC 3083-94
[47] = source organism: human gammaherpesvirus 4

**Q.** How did the Kd ([1]; source organism: Influenza A virus) turn out when APSPYNSRF was run?
**A.** 7.1 nM

**Q.** AVARKHHTK was tested. Which IC50 ([2]; source organism: Variola virus) did it give?
**A.** 1.46 µM

**Q.** And the IC50 [3]?
**A.** 471 nM

**Q.** And the IC50 ([4]; source organism: Variola virus)?
**A.** ≥ 436 µM

**Q.** For EEAKLFFQV, which Kd ([5]; source organism: Yersinia pestis Antiqua) is on record?
**A.** 6.4 nM

**Q.** What does the source list for ELRTFSILN?
**A.** IC50 [4, 42]: ≥ 302 µM; IC50 [6]: 30.1 µM

**Q.** How did the IC50 ([4]; source organism: Vaccinia virus Copenhagen) turn out when ERQLAKAII was run?
**A.** ≥ 111 µM

**Q.** For FIYGYLEPV, which Kd [7] is on record?
**A.** 2 nM

**Q.** And the Kd [8]?
**A.** ≤ 1 nM

**Q.** What about the Kd ([9]; source organism: Orthohantavirus) of the same sequence?
**A.** 12 nM

**Q.** What about the Kd [10] of the same sequence?
**A.** ≤ 1 nM

**Q.** And the Kd [11]?
**A.** ≤ 1 nM

**Q.** And the Kd [12]?
**A.** ≤ 1 nM

**Q.** What does the source list for FLRATTELR?
**A.** IC50 [13, 43]: 56.2 µM; IC50 [2, 43]: 26.1 µM; IC50 [4, 42]: ≥ 87.8 µM

**Q.** Which IC50 [13, 44] does the source give for FMHEQGYSH here?
**A.** 9.72 µM

**Q.** And the IC50 [4, 44]?
**A.** ≥ 301 µM

**Q.** What about the IC50 [14] of the same sequence?
**A.** 14.8 µM

**Q.** Which results are given for FQRAIMNAM?
**A.** Kd [15]: 37.7 nM; Kd [16]: 154 nM; Kd ([9]; source organism: Escherichia coli MS 119-7): 99 nM

**Q.** FTTNIWMKF was tested. Which Kd [17] did it give?
**A.** 5.16 µM

**Q.** And the Kd ([18]; source organism: dengue virus type 4)?
**A.** ≥ 20000 nM

**Q.** Which IC50 [4, 44] does the source give for GDIKASNIV here?
**A.** ≥ 298 µM

**Q.** For GLLIVKTVL, which IC50 [13, 42] is on record?
**A.** 0.294 µM

**Q.** What about the IC50 [4, 42] of the same sequence?
**A.** ≥ 135 µM

**Q.** What about the IC50 [6] of the same sequence?
**A.** ≥ 105 µM

**Q.** For HEYQGKAVL, which Kd ([5]; source organism: Bacillus anthracis str. A0488) is on record?
**A.** 5.1 nM

**Q.** IEHALAHQL was tested. Which Kd ([5]; source organism: Salmonella enterica subsp. enterica serovar Typhi) did it give?
**A.** 7.7 nM

**Q.** How did the Kd ([19]; source organism: Escherichia coli O139:H28 str. E24377A) turn out when ITDMRNGFN was run?
**A.** ≥ 20 µM

**Q.** How did the Kd ([18]; source organism: Homo sapiens) turn out when KTWGQYWQV was run?
**A.** 49 nM

**Q.** With LEPRVFGWM as the sequence, how does the Kd ([5]; source organism: Escherichia coli F11) read?
**A.** 71.3 nM

**Q.** How did the Kd ([5]; source organism: Escherichia coli 536) turn out when LETCHRNAF was run?
**A.** 1030 nM

**Q.** With LLAKSVFNSLY as the sequence, how does the Kd ([19]; source organism: Influenza A virus (A/X-31(H3N2))) read?
**A.** 0.093 µM

**Q.** For LPFQNIHPITI, which Kd ([1]; source organism: Influenza A virus (A/duck/Bavaria/1/1977(H1N1))) is on record?
**A.** 57.4 nM

**Q.** With NELGVPFHL as the sequence, how does the Kd ([5]; source organism: Influenza A virus (A/nt/60/1968(H3N2))) read?
**A.** 2.1 nM

**Q.** With NPRMFLAM as the sequence, how does the Kd ([1]; source organism: Influenza A virus (A/Fort Monmouth/1/1947-mouse adapted(H1N1))) read?
**A.** 372 nM

**Q.** How did the Kd [20] turn out when RTHEESLRL was run?
**A.** 2080 nM

**Q.** What about the Kd [18, 45] of the same sequence?
**A.** 50 nM

**Q.** What about the Kd [21] of the same sequence?
**A.** 1480 nM

**Q.** With STMRRMALR as the sequence, how does the Kd [22] read?
**A.** ≥ 20 µM

**Q.** What about the Kd [23] of the same sequence?
**A.** ≥ 5 µM

**Q.** And the Kd [24]?
**A.** ≥ 5 µM

**Q.** And the Kd [25]?
**A.** ≥ 5 µM

**Q.** And the Kd ([19]; source organism: Homo sapiens)?
**A.** ≥ 20 µM

**Q.** What does the source list for TMNSRYYLV?
**A.** Kd [26]: ≥ 20 µM; Kd [27]: ≥ 20 µM; Kd [28]: ≥ 20 µM; Kd [29]: ≥ 20 µM; Kd [30]: ≥ 20 µM; Kd [31, 45]: ≥ 20000 nM; Kd [32]: ≥ 20 µM; Kd [33, 45]: ≥ 20 µM; Kd [34]: ≥ 20 µM; Kd [35]: 72.5 nM

**Q.** For TPAVCGPVI, which Kd [31, 46] is on record?
**A.** 1860 nM

**Q.** And the Kd [1, 46]?
**A.** 23.8 nM

**Q.** And the Kd [33, 46]?
**A.** ≥ 20 µM

**Q.** Which results are given for VLPFDIKYI?
**A.** Kd [36]: 506 nM; Kd [37]: 15 nM; Kd [38]: 135 nM; Kd [39]: 9.68 nM; Kd ([40]; source organism: Vaccinia virus L-IPV): 3390 nM

**Q.** VTDEGTSSF was tested. Which Kd [40, 47] did it give?
**A.** 332 nM

**Q.** What about the Kd [41] of the same sequence?
**A.** ≤ 1 nM

**Q.** How did the Kd ([9]; source organism: Homo sapiens) turn out when YQFTGIKKY was run?
**A.** ≤ 1 nM

**Q.** YYFQSGNEI was tested. Which Kd [9, 47] did it give?
**A.** ≥ 20000 nM
